Results: publication PMC10094494

Target: D-psicose 3-epimerase from Iocasia fonsfrigidae strain SP3-1 (Iocasia fonsfrigidae strain SP3-1)
Experiment: native gel or EMSA; native-PAGE of the purified recombinant enzyme, run like SDS-PAGE but without SDS, beta-mercaptoethanol and heat

stoichiometry N: 2
Substance: D-psicose 3-epimerase from Iocasia fonsfrigidae strain SP3-1 (enzyme)
